Measurements reported in the supplement of paper PMC9170038.

System: MS2 coat protein
Experiment: apparent KD of MS2 coat protein; designed switch direction (-1 OFF switch, 1 ON switch): 1; higher = weaker reporter binding
How it was run: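 SNAP-549-labelled MS2 coat protein was titrated, doubling from 0.7 or 1.5 nM to 3 µM, over designed RNA switches transcribed on Illumina chips by stalled E. coli RNA polymerase. Runs were done without input, with 200 uM small-molecule ligand, or with an oligonucleotide input. Apparent KD is the per-design median over clusters of curve-fitted normalised fluorescence.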

[1] = Eterna round: R95, input ligand: FMN 200 uM
[2] = Eterna round: R95, input ligand: microRNA oligo, concentration not stated
[3] = Eterna round: R95, input ligand: none
[4] = input ligand: microRNA oligo, concentration not stated

Sequence | apparent KD of MS2 coat protein [1] | apparent KD of MS2 coat protein [2] | apparent KD of MS2 coat protein [3] | apparent KD of MS2 coat protein (input ligand: FMN 200 uM) | apparent KD of MS2 coat protein [4] | apparent KD of MS2 coat protein (input ligand: none)
GCACAUGCACAUGAGGAUCACCCAUGUCCCGCGCCCAUUAGGGCGCGGUGGCCGCAAGUUUUUUGCUCGUCUUAUAA [BIOPHYS241_ElaineNg_2] (puzzle: Sensor for hsa-mir-208a version 2) | 29.4 nM | 21.3 nM | 38.8 nM | – | – | –
GCAGGACGAUAAAACAUCUCACAUGAGGAUCACCCAUGUCGUGAGGAUAUGGAUCCUAAUUGGAUCCAGAAGGCAUGGUCCUGC [Fiskers NG3ss - 24] (Eterna round: R96, puzzle: Same State NG 3) | – | – | – | 13.2 nM | 13.1 nM | 20.9 nM
GCAGGGCCGGGCCCUGCAGACAUGAGGAUCACCCAUGUAACACAGGAUAUGACUGGGAUACCUGGUUAGAAGGGUGCGAAAGAA [Ustivetice] (Eterna round: R96, puzzle: Same State NG 3) | – | – | – | 299 nM | 645 nM | 57.4 nM
GCCAACAUGAGGAUCACCCAUGUCCGGAAGUGAAUUCAAAGUGAGGAUAUGGAGAGACCGAAAAUCCAGAAGGCACGCACAUGC [Eternabot solution 10] (Eterna round: R96, puzzle: Same State NG 3) | – | – | – | 1500 nM | 475 nM | 1260 nM
GCCAACUUAUGAGGAUAUGGCACCUUAUUGGUGCCAGAAGGCAUGUCAAUUGACAUGAGGAUCACCCAUGUAUUAUAGUUGGCA [Fiskers NG1ss - 21] (Eterna round: R96, puzzle: Same State NG 1) | – | – | – | – | 326 nM | –
GCCACACAUGAGGAUCACCCAUGUAAUUACAUGGGAGGAUAUCAGUGCUCGAAAGAGCACUGAGAAGGCCUGUGGC [SS1 - Omei A v3] (puzzle: Same State 1) | 134 nM | 89.6 nM | 67.8 nM | – | – | –
GCCAUCCAGUGAGGAUAUGGCACCGAAACGGUGCCAGAAGGCAUGUCAAUUGACAUGAGGAUCACCCAUGUAUUAUGGAUGGCA [Mat - Same State NG 1 - JL mod - D85] (Eterna round: R96, puzzle: Same State NG 1) | – | – | – | 102 nM | 694 nM | 695 nM
GCCAUCGCAUGAGGAUAUGGCACCGUUUCGGUGCCAGAAGGCAUGUCAAUUGACAUGAGGAUCACCCAUGUAUUAUUGAUGGCA [JL Fiskers NG1ss - 33 mod 7] (Eterna round: R96, puzzle: Same State NG 1) | – | – | – | 55.6 nM | 448 nM | 860 nM
GCCAUCGCAUGAGGAUAUGGCACCGUUUCGGUGCCAGAAGGCAUGUCAUAAGACAUGAGGAUCACCCAUGUAGUUAAGAUGGCA [JL Fiskers NG1ss - 33 mod 8] (Eterna round: R96, puzzle: Same State NG 1) | – | – | – | 31.4 nM | 521 nM | 751 nM
GCCAUCGUAUGAGGAUAUGGCACCGAAACGGUGCCAGAAGGCAUGUCAAUAGACAUGAGGAUCACCCAUGUAUUAUCGAUGGCA [Mat - Same State NG 1 - JL mod - D90] (Eterna round: R96, puzzle: Same State NG 1) | – | – | – | – | 278 nM | –
GCCGGACAUGAGGAUCACCCAUGUCCUCACUAUACAGGAUAUCGGGUAGGAUCCCUACGGCGAGAAGGGUAUAAAA [Inarquat] (puzzle: Same State 1) | 34.2 nM | 32.2 nM | 22.1 nM | – | – | –
GCGAAAGCGGUAGGAUAUCUAGGAUAUGGGAAGGACUAAGUCUGGAGGUCACCUCACCCAGAAGGAGAGAAGGACACCGAAAGG [pwkr ssNG2 2FMN + F9.1] (Eterna round: R96, puzzle: Same State NG 2) | – | – | – | 534 nM | 204 nM | 42.6 nM
GCGAAGAGGUAAGGAUAUGCAUGGCGUAGACAUGAGGAUCACCCAUGUAGGAGACGAAUUAGAAGGGAGAAGGUACCAGGACGC [AK SSNG2-V2-17.1] (Eterna round: R96, puzzle: Same State NG 2) | – | – | – | 939 nM | 699 nM | 746 nM
GCGGAACCUGACAUGAGGAUCACCCAUGUUCCGGAAACGGCACAGGAUAUCUGUCCGAAAAGGUCAGAGAAGGGUGAAAACCGC [Fiskers NG3ss - 96] (Eterna round: R96, puzzle: Same State NG 3) | – | – | – | 269 nM | 714 nM | 719 nM
GCGUUUAACGUAGGAUAUCGACCUACAUGAGGAUCACCCAUGUCUUUGUAAAGUUUUUUUAAUUACGAGAAGGACGUUUUGCAU [JR_SSNG2_Sub071] (Eterna round: R96, puzzle: Same State NG 2) | – | – | – | 40.3 nM | 89.6 nM | 107 nM
GCUACCAUUGAAGCCAACAUGAGGAUCACCCAUGUAUGUUGGUAGGAUAUCGUUUGCAAAGCAAACGAGAAGGGCUAAGGUAGC [Mat - Same State NG 3 - JL Mod - D79] (Eterna round: R96, puzzle: Same State NG 3) | – | – | – | 83.5 nM | 42.1 nM | 74.4 nM
GCUACGGACGUAGGAUAUGUAGGAUAUGGCGAGAGCUAAGCUUGGAAGUCACUUCAGCCAGAAGGACAGAAGGACGCCGUGAGG [pwkr ssNG2 2FMN + F9.17] (Eterna round: R96, puzzle: Same State NG 2) | – | – | – | 355 nM | 1.34 nM | 29.5 nM
GCUAGAAAUAAAGCCAACAUGAGGAUCACCCAUGUAUGUUGGUAGGAUAUCGUAUGCAAAGCAUACGAGAAGGGCCAAACUAGC [Mat - Same State NG 3 - JL Mod - D21] (Eterna round: R96, puzzle: Same State NG 3) | – | – | – | 72.3 nM | 65.4 nM | 122 nM
GCUAGAAUUAAAGCCAACAUGAGGAUCACCCAUGUAUGUUGGCAGGAUAUCGUUUGCAAAGCAAACGAGAAGGGCCAUACUAGC [Mat - Same State NG 3 - JL Mod - D22] (Eterna round: R96, puzzle: Same State NG 3) | – | – | – | 33.4 nM | 87.5 nM | 118 nM
GCUAGAAUUAAAGCCAACAUGAGGAUCACCCAUGUAUGUUGGUAGGAUAUCGUUUGCAAAGCAAACGAGAAGGGCUAAACUAGC [Mat - Same State NG 3 - JL Mod - D16] (Eterna round: R96, puzzle: Same State NG 3) | – | – | – | 97.9 nM | 80.2 nM | 93.8 nM
GCUAGAAUUAAUGCCAACAUGAGGAUCACCCAUGUAUGUUGGCAGGAUAUCGUUUGCUUUGCAAACGAGAAGGGCUAAACUAGC [JL SSNG3 1.03] (Eterna round: R96, puzzle: Same State NG 3) | – | – | – | 217 nM | 170 nM | 217 nM
GCUAGAAUUAAUGCUAACAUGAGGAUCACCCAUGUAUGUUGGCAGGAUAUCGUUUGCAAAGCAAACGAGAAGGGCCAUACUAGC [Mat - Same State NG 3 - JL Mod - D25] (Eterna round: R96, puzzle: Same State NG 3) | – | – | – | 8.26 nM | 27.3 nM | 21.3 nM
GCUAGGAAUUAAGCCAACAUGAGGAUCACCCAUGUAUGUUGGUAGGAUAUCGUUUGCUUUGCAAACGAGAAGGGCUAACCUAGC [JL SSNG3 1.25] (Eterna round: R96, puzzle: Same State NG 3) | – | – | – | 51 nM | 50.4 nM | 58.1 nM
GCUCGACGUGUUGUCUACAUGAGGAUCACCCAUGUAGGUGCGGAGGAUAUCUACGUGUUUCAUGUAGAGAAGGUCGUGUCGAGC [SameState NG3 #89] (Eterna round: R96, puzzle: Same State NG 3) | – | – | – | 40.2 nM | 55.3 nM | 73.3 nM
GCUCGAUGAAAGUCCUACAUGAGGAUCACCCAUGUACGUGGGCAGGAUAUCUACAUGCAGAAUGUAGAGAAGGGCCCAUCGAGC [SameState NG3 #59] (Eterna round: R96, puzzle: Same State NG 3) | – | – | – | 10.4 nM | 15.1 nM | 25.2 nM
GCUCGCACGAUGACCCACAUGAGGAUCACCCAUGUGUGUGGGUAGGAUAUCUAGAUUAAGGAUGUAGAGAAGGGCCGAGCGAGC [SameState NG3 #23] (Eterna round: R96, puzzle: Same State NG 3) | – | – | – | 576 nM | 429 nM | 600 nM
GCUCGGCUGAUGGCCCACAUGAGGAUCACCCAUGUGAGUGGGCAGGAUAUCUAGAUUAAGGAUGUAGAGAAGGGCCUACCGAGC [SameState NG3 #35] (Eterna round: R96, puzzle: Same State NG 3) | – | – | – | 443 nM | 106 nM | 244 nM
GCUGCAAAGGCAGGAUAUGGGUCCAGAGCGCAAAUGCGCUCUGGUACAUGAGGAUCACCCAUGUCCCAGAAGGGCCCAAGCAGC [Inleedbi] (Eterna round: R96, puzzle: Same State NG 2) | – | – | – | 17 nM | 61.3 nM | 117 nM
GGAAACAAGAGAGGAUAUGCAGAGGAUCACCCUGCAGAAGGCUCCCUAGAGAGGAUAUGCAGAGGAUCACCCUGCAGAAGGCUC [pwkr ssNG DX.25] (Eterna round: R96, puzzle: Same State NG 1) | – | – | – | 4.46 nM | 9.9 nM | 24.6 nM
